± gives the standard deviation of the averaged measurements.
System: ATP
Assay: switch fluorescence ratio, 500 uM ATP over buffer (Cy3 cluster intensity, sum of 5 cycles each) (fold (ratio)); higher = stronger signal-on switching upon ATP binding; sequences stand for … in TCGTCGGCAGCGTCAGATGTGTATAAGAGACAGTTTTTTTTTTTTTTTTTTTTTTTTT…TC
Settings: aptamer strand: ATP DNA aptamer (quencher-CACCTGGGGGAGTATTGCGGAGGAAGG + anchor), 100 nM annealed; ATP concentration: 500 uM
How it was run: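 Clusters carrying Cy3-labelled switching strands on a modified Illumina MiSeq flow-cell were annealed to 100 nM quencher-labelled ATP aptamer and imaged in selection buffer. They were imaged again after 15 min with 500 uM ATP at 22 °C, over five buffer/ATP cycles with NaOH stripping and re-annealing in between. For each cluster, the fluorescence ratio is the summed Cy3 intensity of the target cycles divided by that of the buffer cycles, averaged per switch-domain sequence. Clusters outside 100-1000 RFU were left out.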
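Note: ATP exposure 15 min at 22 °C before imaging.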

Sequence: ATATTAGAGG
- switch fluorescence ratio: 0.998 ± 0.037

Sequence: TATCATGTGT
- switch fluorescence ratio: 0.977 ± 0.03

Sequence: GGTGTGTGTC
- switch fluorescence ratio: 1.02 ± 0.02

Sequence: AGGGGTTCGG
- switch fluorescence ratio: 0.992 ± 0.026

Sequence: CTTTGCTAAC
- switch fluorescence ratio: 2.21 ± 0.072

Sequence: TAGCGGAAGT
- switch fluorescence ratio: 0.999 ± 0.017

Sequence: TTAGGGTCGT
- switch fluorescence ratio: 1.01 ± 0.018

Sequence: ACGAAAGGGA
- switch fluorescence ratio: 1.11 ± 0.029

Sequence: TAACTGTTTT
- switch fluorescence ratio: 1.06 ± 0.056

Sequence: CTCGTCCGAC
- switch fluorescence ratio: 1.53 ± 0.11

Sequence: TGAAGGGTTT
- switch fluorescence ratio: 0.996 ± 0.052

Sequence: CAATTAGGGA
- switch fluorescence ratio: 0.985 ± 0.017

Sequence: ACCAGGGACG
- switch fluorescence ratio: 1.02 ± 0.073

Sequence: AAAGACGACA
- switch fluorescence ratio: 1.27 ± 0.29

Sequence: AAGACGGGGA
- switch fluorescence ratio: 0.974 ± 0.023

Sequence: CGACATTGAG
- switch fluorescence ratio: 0.967 ± 0.012

Sequence: TAATTTTTG
- switch fluorescence ratio: 0.9976 ± 0.0011

Sequence: ACAGGGCTAT
- switch fluorescence ratio: 1.02 ± 0.014

Sequence: AGTAGTTGCC
- switch fluorescence ratio: 1.014 ± 0.0021

Sequence: ACGAGTTACT
- switch fluorescence ratio: 1.1 ± 0.013

Sequence: CCAGGGTTTT
- switch fluorescence ratio: 1.06 ± 0.1

Sequence: AAAAAATCGG
- switch fluorescence ratio: 1 ± 0.019

Sequence: GTGGGTTTGG
- switch fluorescence ratio: 0.999 ± 0.049

Sequence: AAAAATGTTG
- switch fluorescence ratio: 1 ± 0.053

Sequence: TCCAAGGTCC
- switch fluorescence ratio: 1.04 ± 0.042

Sequence: TTTTCGATAG
- switch fluorescence ratio: 1 ± 0.013

Sequence: AATATGGAGC
- switch fluorescence ratio: 1.08 ± 0.14

Sequence: TCACTAAAAA
- switch fluorescence ratio: 0.979 ± 0.12

Sequence: AAGTTTTATG
- switch fluorescence ratio: 1.03 ± 0.059

Sequence: AATTACCGCG
- switch fluorescence ratio: 1.03 ± 0.023

Sequence: CACAGTGGTA
- switch fluorescence ratio: 1.03 ± 0.058

Sequence: TAAGTCCCCA
- switch fluorescence ratio: 1.01 ± 0.052

Sequence: TTGCTAAGCG
- switch fluorescence ratio: 1.02 ± 0.012

Sequence: TGGGGTAGCC
- switch fluorescence ratio: 0.932 ± 0.029

Sequence: GCATTTGTAC
- switch fluorescence ratio: 1.266 ± 0.0026

Sequence: TGTTAGGAAT
- switch fluorescence ratio: 1 ± 0.021

Sequence: TTGTACATCC
- switch fluorescence ratio: 1.03 ± 0.013

Sequence: GCAATCAGAA
- switch fluorescence ratio: 1.04 ± 0.035

Sequence: GTTTGCTTTT
- switch fluorescence ratio: 1 ± 0.046

Sequence: GGGACGGGGC
- switch fluorescence ratio: 1.06 ± 0.041

Sequence: TGGGGCTTTA
- switch fluorescence ratio: 1.06 ± 0.031

Sequence: GGGTACCGAC
- switch fluorescence ratio: 1.08 ± 0.036

Sequence: CTTGTGGCGG
- switch fluorescence ratio: 0.97 ± 0.0098

Sequence: CCTCTATGAT
- switch fluorescence ratio: 1.42 ± 0.044

Sequence: AAATATGGTT
- switch fluorescence ratio: 1.02 ± 0.035

Sequence: CAGGCGCAGG
- switch fluorescence ratio: 1.06 ± 0.051

Sequence: AGAAGAGTAA
- switch fluorescence ratio: 1.009 ± 0.0091

Sequence: AATTTTTCTT
- switch fluorescence ratio: 0.98 ± 0.05

Sequence: TGTGTGCGGC
- switch fluorescence ratio: 1 ± 0.028

Sequence: TTCTTAATGC
- switch fluorescence ratio: 0.985 ± 0.024

Sequence: CGGGGGGGAA
- switch fluorescence ratio: 0.999 ± 0.03

Sequence: GGGGGTGTCT
- switch fluorescence ratio: 0.99 ± 0.034

Sequence: CCTCAGACAG
- switch fluorescence ratio: 1.58 ± 0.052

Sequence: TGAGGATGGA
- switch fluorescence ratio: 0.975 ± 0.044

Sequence: TGGGGTTCTT
- switch fluorescence ratio: 0.993 ± 0.034

Sequence: TGTTTTAATT
- switch fluorescence ratio: 0.99 ± 0.021

Sequence: ACTTGATCCC
- switch fluorescence ratio: 1.02 ± 0.043

Sequence: TTGTGCGAAA
- switch fluorescence ratio: 1.01 ± 0.059

Sequence: TTTTATGACA
- switch fluorescence ratio: 1.02 ± 0.033

Sequence: TCTTTTGGGA
- switch fluorescence ratio: 1.16 ± 0.29

Sequence: ACTAAAATAT
- switch fluorescence ratio: 1.021 ± 0.0093

Sequence: TTAAAGCTTT
- switch fluorescence ratio: 1.09 ± 0.22

Sequence: TATATTTTGT
- switch fluorescence ratio: 1.02 ± 0.016

Sequence: ACTTTAATTG
- switch fluorescence ratio: 1.002 ± 0.0014

Sequence: TCTGATGGCT
- switch fluorescence ratio: 1.04 ± 0.05

Sequence: ATAAACCTAA
- switch fluorescence ratio: 1.05 ± 0.024

Sequence: AAAGGGGGTG
- switch fluorescence ratio: 1.02 ± 0.047

Sequence: GTTATTTACT
- switch fluorescence ratio: 1.024 ± 0.0033

Sequence: TGACGTTAAG
- switch fluorescence ratio: 1.03 ± 0.086

Sequence: GCTAGAGGGT
- switch fluorescence ratio: 1.02 ± 0.027

Sequence: ATAAAACAAG
- switch fluorescence ratio: 0.99 ± 0.027

Sequence: TAGTTTATCA
- switch fluorescence ratio: 1.001 ± 0.01

Sequence: AGCTGTACTA
- switch fluorescence ratio: 1.21 ± 0.029

Sequence: TAGCAGGACT
- switch fluorescence ratio: 1.76 ± 0.22

Sequence: ATAAAGGGCG
- switch fluorescence ratio: 1.029 ± 0.01

Sequence: ATTTGGAAGA
- switch fluorescence ratio: 1.01 ± 0.0048

Sequence: TGGGCGGTA
- switch fluorescence ratio: 0.963 ± 0.026

Sequence: TTAATAGGCC
- switch fluorescence ratio: 0.974 ± 0.036

Sequence: AAATGTGGAG
- switch fluorescence ratio: 0.984 ± 0.021

Sequence: TGATGCTTTG
- switch fluorescence ratio: 0.998 ± 0.051

Sequence: GATATTGGGG
- switch fluorescence ratio: 0.981 ± 0.033

Sequence: CTATTCTTGG
- switch fluorescence ratio: 0.9524 ± 0.006

Sequence: CAGTTCGGCC
- switch fluorescence ratio: 1.01 ± 0.024

Sequence: GGGGGGTTAC
- switch fluorescence ratio: 1.42 ± 1

Sequence: GATGCTGTGC
- switch fluorescence ratio: 1.0328 ± 0.00033

Sequence: AGGCGGAAGT
- switch fluorescence ratio: 1.014 ± 0.0031

Sequence: GGGCGTCGGT
- switch fluorescence ratio: 0.984 ± 0.015

Sequence: GGGGTTCATT
- switch fluorescence ratio: 1.01 ± 0.04

Sequence: TCAGGGTAGC
- switch fluorescence ratio: 1.02 ± 0.02

Sequence: TATGTATAGG
- switch fluorescence ratio: 1.03 ± 0.049

Sequence: TCATTATTCT
- switch fluorescence ratio: 0.97 ± 0.012

Sequence: TTACGTAGGC
- switch fluorescence ratio: 1.09 ± 0.012

Sequence: GGGATCATTA
- switch fluorescence ratio: 0.983 ± 0.02

Sequence: TATTATGTGG
- switch fluorescence ratio: 0.961 ± 0.01

Sequence: TGAATTTTAC
- switch fluorescence ratio: 1.03 ± 0.04

Sequence: GGCCCGTACT
- switch fluorescence ratio: 1.04 ± 0.042

Sequence: ATATACATGG
- switch fluorescence ratio: 1.01 ± 0.035

Sequence: ATCAGGGTGG
- switch fluorescence ratio: 0.987 ± 0.032

Sequence: CGAGCGGTTG
- switch fluorescence ratio: 0.999 ± 0.013

Sequence: GTTATTGGGA
- switch fluorescence ratio: 0.99 ± 0.051

Sequence: CCATCGCCCT
- switch fluorescence ratio: 1.17 ± 0.061

Sequence: CAATAGGGGC
- switch fluorescence ratio: 0.969 ± 0.03

Sequence: GTGAATGTAT
- switch fluorescence ratio: 1.02 ± 0.021

Sequence: GGCATTTTTG
- switch fluorescence ratio: 1.03 ± 0.015

Sequence: TGGTGTTGGA
- switch fluorescence ratio: 0.9906 ± 0.0068

Sequence: TCAAGTTATT
- switch fluorescence ratio: 0.973 ± 0.0099

Sequence: TAGGAAATCT
- switch fluorescence ratio: 1.03 ± 0.017

Sequence: AATCCGTTTT
- switch fluorescence ratio: 1.04 ± 0.044

Sequence: TGGGCTTCAT
- switch fluorescence ratio: 0.998 ± 0.028

Sequence: GGGCCAAGGA
- switch fluorescence ratio: 1.01 ± 0.02

Sequence: GGAGGGGCGA
- switch fluorescence ratio: 1.1 ± 0.14

Sequence: ATAGGCATTT
- switch fluorescence ratio: 1.03 ± 0.013

Sequence: AGTATTTGGT
- switch fluorescence ratio: 1 ± 0.025

Sequence: GTGTTACTGT
- switch fluorescence ratio: 0.959 ± 0.026

Sequence: CGAGTTACGG
- switch fluorescence ratio: 1.01 ± 0.019

Sequence: TTAGGAACTC
- switch fluorescence ratio: 0.982 ± 0.014

Sequence: TTGTTCATTT
- switch fluorescence ratio: 0.994 ± 0.012

Sequence: GTTCTTGCGG
- switch fluorescence ratio: 0.959 ± 0.022

Sequence: TATTCACAAG
- switch fluorescence ratio: 1.024 ± 0.0027

Sequence: TATGGTGTGG
- switch fluorescence ratio: 0.967 ± 0.024

Sequence: GTGGGTGGGA
- switch fluorescence ratio: 0.982 ± 0.046

Sequence: AATCGGTACT
- switch fluorescence ratio: 1.01 ± 0.038

Sequence: CGGGAACTTT
- switch fluorescence ratio: 1.02 ± 0.065

Sequence: GCAGTGGGTC
- switch fluorescence ratio: 0.995 ± 0.0057

Sequence: CCAATGTCTC
- switch fluorescence ratio: 1.08 ± 0.013

Sequence: TATTCCGGCC
- switch fluorescence ratio: 1.05 ± 0.058

Sequence: AGCAATTTTT
- switch fluorescence ratio: 1.1 ± 0.034

Sequence: AGAACTGAGA
- switch fluorescence ratio: 0.998 ± 0.077

Sequence: GAAATTACAG
- switch fluorescence ratio: 0.994 ± 0.016

Sequence: TGGGGGGATT
- switch fluorescence ratio: 1.01 ± 0.045

Sequence: TTAACGATGA
- switch fluorescence ratio: 1.01 ± 0.044

Sequence: TTCCAGTTTT
- switch fluorescence ratio: 1 ± 0.04

Sequence: AAATTTTTAG
- switch fluorescence ratio: 1.02 ± 0.018

Sequence: GCGAGTACCG
- switch fluorescence ratio: 1.02 ± 0.032

Sequence: GGGGGGATGT
- switch fluorescence ratio: 0.993 ± 0.027

Sequence: ACCGGATATA
- switch fluorescence ratio: 1.006 ± 0.0081

Sequence: TTAAGGGGGC
- switch fluorescence ratio: 0.969 ± 0.042

Sequence: TCGTGTATCT
- switch fluorescence ratio: 0.946 ± 0.039

Sequence: GACTCAGGGG
- switch fluorescence ratio: 1.39 ± 0.56

Sequence: TAGGTTGGTC
- switch fluorescence ratio: 1.02 ± 0.064

Sequence: TTGTATATGT
- switch fluorescence ratio: 1.0292 ± 2.1e-05

Sequence: GCTCTCATAT
- switch fluorescence ratio: 1.027 ± 0.0086

Sequence: GGGAGTGAGA
- switch fluorescence ratio: 1.03 ± 0.035

Sequence: GACAGAAGGC
- switch fluorescence ratio: 1 ± 0.052

Sequence: AAAAGATAAA
- switch fluorescence ratio: 0.977 ± 0.023

Sequence: AGGTATGGTC
- switch fluorescence ratio: 0.995 ± 0.031

Sequence: ACAGGGTCG
- switch fluorescence ratio: 0.948 ± 0.025

Sequence: CCTTGGACGG
- switch fluorescence ratio: 1.03 ± 0.02

Sequence: TTAGGTACGA
- switch fluorescence ratio: 1.05 ± 0.011

Sequence: AGTCATGTGG
- switch fluorescence ratio: 1.01 ± 0.019

Sequence: ACTAGTATGC
- switch fluorescence ratio: 0.992 ± 0.017

Sequence: TATCACTTTC
- switch fluorescence ratio: 1.06 ± 0.033

Sequence: CAGTTGTGGG
- switch fluorescence ratio: 0.9802 ± 0.0066

Sequence: GCGTGCATTC
- switch fluorescence ratio: 1.05 ± 0.017

Sequence: AGAAAAGGAA
- switch fluorescence ratio: 1 ± 0.017

Sequence: CGCCTGTTAG
- switch fluorescence ratio: 0.99 ± 0.016

Sequence: TCTATTGCTG
- switch fluorescence ratio: 0.995 ± 0.02
